# Test results as given in US20200199225A1 (AVA LIFESCIENCE, published 2020).
# Target: T1, CLL subset 2 typical BCR (HC/LC typical for the CLL subset 2) expressed on the surface of TKO cells
# T1 construct: also called CLL-Subset2 BCR; BCR of Interest
# Assay: FACS on TKO cells expressing the CLL receptor
# Source text: Monoclonal antibodies were produced using the standard procedure in mice and the subsequent generation of hybridoma cells. The screening for positive clones was not performed by ELISA as usual. Since the target structure is a membrane-bound receptor, it is of central importance to validate the binding of the potential antibodies in a cellular system, i.e. while largely preserving the cell physiological states native to this cell type. First, groups of pooled supernatants were examined for binding events using FACS analysis. For this purpose different CLL-Subset 2 BCR variants were expressed on the surface of a cell line (TKO), which cannot express BCR itself. […] Subsequently, the supernatants of the individual hybridoma clones were examined in more detail with regard to their binding in order to identify highly specific clones with a high affinity.
# For the screening procedure, different vectors were used in the previous transformation for the following heavy chain (HC) and light chain (LC) combinations of the corresponding CLL-BCRs, these combinations being used on the surface of the BCR reconstitution system: [0074] Control (transformation vector without BCR) (see FIG. 1 A) [0075] Vector with HC/LC typical for the CLL subset 2 (see FIG. 1 B) [0076] Vector with a non-CLL subset 2 HC/a LC typical for the CLL subset 2 (without target motif; epitope) (see FIG. 1 C) [0077] […]
# T1 sequence (heavy, as listed by the source, chain 1 of 2): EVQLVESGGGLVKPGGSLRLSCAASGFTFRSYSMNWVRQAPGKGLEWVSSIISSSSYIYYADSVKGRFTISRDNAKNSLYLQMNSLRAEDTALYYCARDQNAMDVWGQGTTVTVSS
# T1 sequence (light, as listed by the source, chain 2 of 2): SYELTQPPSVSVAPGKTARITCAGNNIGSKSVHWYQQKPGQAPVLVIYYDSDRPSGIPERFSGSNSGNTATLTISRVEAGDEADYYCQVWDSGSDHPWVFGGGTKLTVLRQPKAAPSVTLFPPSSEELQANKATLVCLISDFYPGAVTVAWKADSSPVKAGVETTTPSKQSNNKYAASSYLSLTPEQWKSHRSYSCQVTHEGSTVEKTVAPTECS
binder,measurement,value
"AVA-mAb01 (antibody, V domains shown, Murine monoclonal antibody from a hybridoma, tested as hybridoma supernatant and detected with a fluorescence-labeled anti-mouse-IgG antibody; the constant regions are not; also called specific monoclonal antibody against Subset-2; the selected antibody) VH: QVQLQQSGPGLVQPSQSLSITCTVSGFSLTSYGIHWVRQSPGKGLEWLGVIWRGGGTDSNAAFMSRLSITKDNSKSQVFFKMNSLQADDTAIYYCARSRYDEEESMNYWGQGTSVTVSS VL: QIVLTQSPASLSASVGETVTITCRASGNIHSYLAWYQQKQGKSPQLLVYNAKTLADGVPSRFSGSGSGTQYSLKINSLQPEDFGSYYCQHFWNTPPTFGAGTKLELK",binding result,binds
